Source: patent publication US10745461B2, “Pulsed introduction of low-dose RANKL as a therapy for diet-induced atherosclerosis” (Saint Louis University, priority 2015, dated 2020)
“Also recorded” adds a separate entry of the source.

Assays:
[1] = test system: FoxP3 induction in OT-I CD8 T-cells by osteoclasts; experiment: TcREG (FoxP3) induction in OT-I CD8 T-cells co-cultured with bone marrow-derived osteoclasts; assay type: cell-based, mice; details: 10 ng/ml or 20 ng/ml TNFα, OVA
Procedure: It was also determined that IL-17 and TNFα suppresses TcREG induction by osteoclasts. […] Another possibility is that loss of estrogen leads to increased production of the pro-inflammatory cytokines by T-cells that increase osteoclast activity. Without being limited to any method of operation, it is actually expected that in the presence of pro-inflammatory cytokines osteoclasts fail to induce TcREG. As estrogen depletion lead to greater number of osteoclasts because of a decreased Fas ligand expression, the loss of TcREG induction and increased osteoclast numbers would tip the balance towards increased osteoclast resorption and net bone loss. To test fir this possibility, OC-iTcREG induction was measured in the presence of IL-17 and TNFα. […] To understand the underlying mechanism of how TNFα affects osteoclasts' ability to induce TcREG, the signals provided by osteoclasts to induce FoxP3 in the CD8 T-cells were investigated along with if these signals were affected by […].
The most common and well-studied costimulatory signals on antigen-presenting cells are CD80 (B7.1) and CD86 (B7.2). As CD80/CD86 double knockout mice are commercially available, osteoclasts were generated from bone marrow precursors of these mice. The CD80/CD86 null osteoclasts (as well as wild-type controls) were then used to prime OT-I T-cells in the presence and absence of antigen. […] OT-I CD8 T-cells activated by CD80/CD86 null osteoclasts produced IL-6, IL-2 and IFN-γ to levels indistinguishable from wild-type mice (FIG. 4B). Having ruled out CD80/CD86 as the costimulatory molecules, an osteoclast microarray dataset was queried for other costimulatory molecules expressed by osteoclasts. Osteoclasts that express CD200 and c-Mer were found. The role of CD200 was chosen for testing based on the phenotype of CD200^−/− mice and the reported role for CD200 in regulating TcREG.
The most, well characterized regulator of FoxP3 in T-cells is TGFβ. It has been previously shown that neutralization or addition of TGFβ has no effect on the induction of TcREG. Therefore identification of other pathways that can regulate the FoxP3 promoter in T-cells was sought. A number of previous studies have identified that the Notch signaling contributes to FoxP3 induction. To test if Notch signaling is important for TcREG induction by osteoclasts, the γ-Secretase inhibitor DAPT was initially used. Ligation of the Notch receptor by its ligand leads to cleavage of Notch by γ-secretase. […] Next, we identified the Notch ligands expressed in osteoclasts using reverse-transcription followed by PCR. […] Of the four, the osteoclast-precursors (bone marrow cells treated with M-CSF but not RANKL) express all of the ligands except DLL4 (FIG. 5C). To assess the role of DLL4 in TcREG (soluble) DLL4-Fc was added to OT-I CD8 T-cells prior to co-culturing with osteoclasts. […] To assess the role of DLL4 in vivo the induction experiments as described in FIG. 1 were performed: GFP negative (polyclonal) CD8 T-cells were purified by cell sorting and transferred into OT-II Rag^−/− mice. Two hours prior to RANKL treatment, DLL4-Fc or a control IgG1-Fc, were injected intravenously into the recipient mice, As described for FIG. 1, RANKL (0.125 mg/kg) was then administered on two consecutive days.
DLL-4 expression is repressed in the presence of […] and IL-17 but can be de-repressed by RANKL. […]

ovariectomized mice = experiment: Low-dose RANKL at various times post-OVX in C57BL/6J mice; assay type: in vivo; details: for TcREG induction (flow-cytometry, femora): OVX C57BL/6J, two doses 0.125 mg/kg 24 hours apart, 10 days after first treatment, 2, 3, 6, 8 weeks post-OVX, 0.125 mg/kg
Procedure: FIGS. 9E-9F provide for examples of a low-dose RANKL treatment in a mouse model. All mice (C57BL/6J) were sham-operated (S) or ovariectomized (OVX) at 12 weeks of age. At time indicated after OVX, two doses of RANKL (0.125 mg/kg) were administered 24 hours apart 10 days after first treatment, mice were sacrificed. […] Representative images of the proximal tibia are shown from 3 weeks post-OVX in FIG. 9E. […] Representative images from the double-labeled femur (calcein green and alizarin red) from each group are shown. Arrows are shown to emphasize the distance between dyes. Data from 6 to 12 mice per group. For figure reference; ****=P<1×10^−4; ***=P<1×10^−3; **=P<0.01; *=P<0.05 and NS=not statistically significant.

IL-17A and TNFα = experiment: WD-fed ovariectomized WT mice: TcREG and IL-17A/TNFα production by peripheral blood T-cells; assay type: in vivo; details: for peripheral blood T-cells that express TNFα and/or IL-17A (flow cytometry) / IL-17A and TNFα produced by freshly isolated peripheral blood cells (ELISA): WD-fed OVX WT mice
Text: It has been previously shown that low-dose RANKL (IdRANKL) induces TcREG in bone marrow. We postulated that induction of TcREG might be atheroprotective as it protects against osteoporosis in ovariectomized mice. To test that proposal, we first tested the ability of IdRANKL to modulate the systemic availability of proinflammatory cytokines. Thus, a new group of WT mice were fed WD, and subjected to sham or OVX surgeries, then dosed with saline or IdRANKL (two i.p. injections 3 and 7 weeks after OVX). […] We then, measured the ability of freshly isolated T-cells from peripheral blood to produce IL-17A and TNFα. […] Zoledronate is a bisphosphonate that is used clinically to prevent bone resorption (by suppressing osteoclasts). […] Without being limited to any particular theory of operation, we hypothesize that these cells contribute to postmenopausal comorbidities such as atherosclerosis and osteoporosis, and that immunosuppressing therapies such as pulsed IdRANKL will have cardio- and osteo-protective effects.

atheroma plaque = experiment: Male LDLR-/- mice on western diet, pulsed low-dose RANKL; assay type: in vivo; details: 9 weeks
Procedure: FIGS. 22 and 23 extend the evaluation of the effect of pulse RANKL treatment to male LDLR mice. Surgery was, unnecessary in this case, so all mice were simply placed on the western diet at 10 weeks of age. Two weeks later one-half of the mice were treated with pulsed low-dose RANKL as contemplated elsewhere herein and the same group was treated again 6 weeks later. Time of treatment is indicated by the arrows in FIG. 22. […] All mice were sacrificed 9 weeks after the start of the experiment and plaque volumes were compared between the two groups.

B1: receptor activator of NF-κB ligand (protein, UniProt O35235 139-316, looked up)
Tumor necrosis factor ligand …: FSGAPAMMEGSWLDVAQRGKPEAQPFAHLTINAASIPSGSHKVTLSSWYHDRGWAKISNMTLSNGKLRVNQDGFYYLYANICFRHHETSGSVPTDYLQLMVYVVKTSIKIPSSHNLMKGGSTKNWSGNSEFHFYSINVGGFFKLRAGEEISIQVSNPSLLDPDQDATYFGAFKVQDID
modifications: GST tag
restoration of TcREG induction by additional RANKL in the presence of TNFα [1]: restores induction of TcREG; also recorded: the induction of TcREG was also restored
TcREG induction (flow-cytometry, femora) (ovariectomized mice; listed as Low-dose RANKL): induced TcREG
TcREG induction (flow-cytometry, femora) (ovariectomized mice; listed as low-dose RANKL): can induce TcREG at two, three, six and eight-weeks post-ovariectomy
bone mass of the proximal tibia by μCT (ovariectomized mice; as E20): increased bone mass of the proximal tibia
mineral apposition and bone formation rate (dynamic histomorphometry) (ovariectomized mice; as E20): increased mineral apposition (left panel) and bone formation rate
proinflammatory effector cells in the femora (ovariectomized mice; as E20): decreased proinflammatory effector cells in the femora
serum CTX levels (ovariectomized mice; as E20): decreased serum CTX levels
peripheral blood T-cells that express TNFα and/or IL-17A (flow cytometry) (IL-17A and TNFα): abrogates OVX-induced increase in peripheral blood T-cells that express TNFα and/or IL-17A
IL-17A and TNFα produced by freshly isolated peripheral blood cells (ELISA) (IL-17A and TNFα; listed as IdRANKL): abrogated the ability of circulating T-cells to secrete IL-17A, TNFα, or both
peripheral blood T-cells that express TNFα and/or IL-17A (flow cytometry) (IL-17A and TNFα; listed as IdRANKL): prevented such increase
IL-17A and TNFα produced by freshly isolated peripheral blood cells (ELISA) (IL-17A and TNFα; listed as low-dose RANKL): abrogates OVX-induced increase in TNFα and IL-17A expression
numbers of CD8+ FoxP3+ cells in the bone marrow (IL-17A and TNFα; WD-fed WT mice, two i.p. injections 3 and 7 weeks after OVX): increased
plaque volumes (atheroma plaque): plaque volumes were reduced in the treated group
weight gain (atheroma plaque): weight gain in the treated mice was reduced
